Test results reported in patent US20220064674A1 (MILTENYI BIOTEC B V, published 2022).

Target: T1, CD62L (L-selectin) expressed on cells (human, UniProt P14151 39-372)
T1 construct: whole, on cells; also called HT1080-CD62L
T1 sequence: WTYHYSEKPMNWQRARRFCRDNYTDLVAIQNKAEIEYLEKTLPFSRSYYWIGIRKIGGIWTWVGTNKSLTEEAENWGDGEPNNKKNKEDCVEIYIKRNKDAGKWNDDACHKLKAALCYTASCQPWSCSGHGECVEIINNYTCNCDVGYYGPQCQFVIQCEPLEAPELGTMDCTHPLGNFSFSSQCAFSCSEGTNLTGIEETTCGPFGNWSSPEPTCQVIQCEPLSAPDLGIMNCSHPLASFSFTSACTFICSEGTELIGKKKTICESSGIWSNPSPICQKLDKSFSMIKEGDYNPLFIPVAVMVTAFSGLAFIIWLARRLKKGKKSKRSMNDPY
Experiment: competition and binding assay on PBMC, flow cytometry

B1: CD62L specific antibody derived from the same clone (parental antibody) (antibody, V domains shown)
VH: EVKLVESGGGLVKPGGSLKLSCAASGFTFSSYAMSWVRQTPEKRLEWVASISSGGSTYYPDSVKGRFTISRDNARNILYLQMSSLRSEDTAMYYCARDDDGYYDYWGQGTTLTVSS
VL: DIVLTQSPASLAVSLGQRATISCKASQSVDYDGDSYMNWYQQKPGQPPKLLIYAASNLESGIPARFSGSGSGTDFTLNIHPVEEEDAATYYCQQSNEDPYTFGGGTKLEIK
B1: binds.
